Results published in PMC8294757 (Science Advances, 2021).

Target: ELMO1-DOCK5 (1 to 1642) complex (human, UniProt Q9H7D0 1-1642; Q92556 1-727)
Assay: SPR

Chain of ELMO1-DOCK5 (1 to 1642) complex (Q9H7D0 1-1642, chain 1 of 2): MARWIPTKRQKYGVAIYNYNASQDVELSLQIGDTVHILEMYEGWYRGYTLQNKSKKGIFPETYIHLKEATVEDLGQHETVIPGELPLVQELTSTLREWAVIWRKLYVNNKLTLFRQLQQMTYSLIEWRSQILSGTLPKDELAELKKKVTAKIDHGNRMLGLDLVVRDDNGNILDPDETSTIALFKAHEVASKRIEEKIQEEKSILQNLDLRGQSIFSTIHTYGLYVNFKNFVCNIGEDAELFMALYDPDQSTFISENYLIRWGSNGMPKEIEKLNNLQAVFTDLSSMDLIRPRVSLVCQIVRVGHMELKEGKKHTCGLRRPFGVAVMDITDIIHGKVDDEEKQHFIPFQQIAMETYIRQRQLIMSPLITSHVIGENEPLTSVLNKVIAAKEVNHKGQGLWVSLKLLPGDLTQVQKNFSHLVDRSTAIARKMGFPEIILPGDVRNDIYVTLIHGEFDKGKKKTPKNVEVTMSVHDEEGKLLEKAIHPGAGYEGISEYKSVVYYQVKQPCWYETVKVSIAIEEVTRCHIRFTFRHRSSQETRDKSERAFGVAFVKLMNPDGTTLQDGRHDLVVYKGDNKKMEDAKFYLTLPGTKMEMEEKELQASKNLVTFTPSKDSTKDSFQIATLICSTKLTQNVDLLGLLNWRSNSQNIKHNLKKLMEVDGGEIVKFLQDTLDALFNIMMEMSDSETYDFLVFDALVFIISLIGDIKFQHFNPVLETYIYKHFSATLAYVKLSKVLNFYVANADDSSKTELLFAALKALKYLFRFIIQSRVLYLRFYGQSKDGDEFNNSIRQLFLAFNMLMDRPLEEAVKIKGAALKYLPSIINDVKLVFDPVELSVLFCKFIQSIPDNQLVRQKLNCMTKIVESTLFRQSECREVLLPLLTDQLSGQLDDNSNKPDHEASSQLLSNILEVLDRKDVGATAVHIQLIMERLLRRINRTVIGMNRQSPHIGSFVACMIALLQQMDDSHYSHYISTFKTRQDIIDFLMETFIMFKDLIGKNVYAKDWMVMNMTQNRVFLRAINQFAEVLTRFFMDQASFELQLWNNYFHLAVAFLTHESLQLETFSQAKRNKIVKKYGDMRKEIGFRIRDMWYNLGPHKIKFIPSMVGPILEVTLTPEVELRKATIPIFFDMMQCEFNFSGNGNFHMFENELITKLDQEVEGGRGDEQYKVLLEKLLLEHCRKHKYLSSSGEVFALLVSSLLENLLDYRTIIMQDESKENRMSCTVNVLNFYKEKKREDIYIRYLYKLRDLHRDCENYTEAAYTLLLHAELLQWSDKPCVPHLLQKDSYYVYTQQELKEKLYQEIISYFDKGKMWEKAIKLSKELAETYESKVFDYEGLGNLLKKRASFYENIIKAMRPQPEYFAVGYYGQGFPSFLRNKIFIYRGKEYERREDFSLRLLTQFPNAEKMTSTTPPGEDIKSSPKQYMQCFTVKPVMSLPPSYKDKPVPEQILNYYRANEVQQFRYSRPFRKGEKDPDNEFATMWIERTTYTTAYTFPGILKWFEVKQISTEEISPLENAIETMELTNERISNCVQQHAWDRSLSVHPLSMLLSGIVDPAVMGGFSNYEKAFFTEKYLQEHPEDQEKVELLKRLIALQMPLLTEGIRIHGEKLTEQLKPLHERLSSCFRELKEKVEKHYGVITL
Chain of ELMO1-DOCK5 (1 to 1642) complex (Q92556 whole entry, chain 2 of 2): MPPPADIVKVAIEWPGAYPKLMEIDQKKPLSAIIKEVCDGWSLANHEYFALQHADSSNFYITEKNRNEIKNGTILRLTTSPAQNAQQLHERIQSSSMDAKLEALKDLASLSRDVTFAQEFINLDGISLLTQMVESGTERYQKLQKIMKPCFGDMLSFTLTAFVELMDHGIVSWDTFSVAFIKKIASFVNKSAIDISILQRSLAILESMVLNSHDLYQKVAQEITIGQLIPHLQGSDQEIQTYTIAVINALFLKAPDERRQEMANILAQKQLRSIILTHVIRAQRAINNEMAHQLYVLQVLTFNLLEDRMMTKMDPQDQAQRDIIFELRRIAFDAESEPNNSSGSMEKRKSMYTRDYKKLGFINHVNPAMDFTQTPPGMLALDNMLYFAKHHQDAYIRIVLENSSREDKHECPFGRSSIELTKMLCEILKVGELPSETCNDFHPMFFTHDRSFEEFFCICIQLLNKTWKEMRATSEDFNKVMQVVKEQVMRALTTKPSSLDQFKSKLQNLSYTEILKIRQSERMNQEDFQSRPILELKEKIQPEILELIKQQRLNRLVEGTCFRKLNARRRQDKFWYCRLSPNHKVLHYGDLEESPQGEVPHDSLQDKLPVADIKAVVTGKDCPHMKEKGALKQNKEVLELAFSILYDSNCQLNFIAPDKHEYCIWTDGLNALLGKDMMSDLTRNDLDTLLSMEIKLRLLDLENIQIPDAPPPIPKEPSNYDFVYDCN

B1: human RhoG (residues 1 to 184) Q61L mutant, GTP-bound (natural protein)
chain: not shown
- Kd: 10.3 µM
